For orientation: EC50 means the concentration at which the effect is half-maximal. A word on the Kd: it is the free concentration of one partner at which half of the binding sites on the other are occupied at equilibrium, for simple one-to-one binding.

Test [1] concerns the target T1, human CNTN4-10×His (human, UniProt Q8IWV2 19-1000).
T1 construct: also called CNTN-4 protein
T1 sequence: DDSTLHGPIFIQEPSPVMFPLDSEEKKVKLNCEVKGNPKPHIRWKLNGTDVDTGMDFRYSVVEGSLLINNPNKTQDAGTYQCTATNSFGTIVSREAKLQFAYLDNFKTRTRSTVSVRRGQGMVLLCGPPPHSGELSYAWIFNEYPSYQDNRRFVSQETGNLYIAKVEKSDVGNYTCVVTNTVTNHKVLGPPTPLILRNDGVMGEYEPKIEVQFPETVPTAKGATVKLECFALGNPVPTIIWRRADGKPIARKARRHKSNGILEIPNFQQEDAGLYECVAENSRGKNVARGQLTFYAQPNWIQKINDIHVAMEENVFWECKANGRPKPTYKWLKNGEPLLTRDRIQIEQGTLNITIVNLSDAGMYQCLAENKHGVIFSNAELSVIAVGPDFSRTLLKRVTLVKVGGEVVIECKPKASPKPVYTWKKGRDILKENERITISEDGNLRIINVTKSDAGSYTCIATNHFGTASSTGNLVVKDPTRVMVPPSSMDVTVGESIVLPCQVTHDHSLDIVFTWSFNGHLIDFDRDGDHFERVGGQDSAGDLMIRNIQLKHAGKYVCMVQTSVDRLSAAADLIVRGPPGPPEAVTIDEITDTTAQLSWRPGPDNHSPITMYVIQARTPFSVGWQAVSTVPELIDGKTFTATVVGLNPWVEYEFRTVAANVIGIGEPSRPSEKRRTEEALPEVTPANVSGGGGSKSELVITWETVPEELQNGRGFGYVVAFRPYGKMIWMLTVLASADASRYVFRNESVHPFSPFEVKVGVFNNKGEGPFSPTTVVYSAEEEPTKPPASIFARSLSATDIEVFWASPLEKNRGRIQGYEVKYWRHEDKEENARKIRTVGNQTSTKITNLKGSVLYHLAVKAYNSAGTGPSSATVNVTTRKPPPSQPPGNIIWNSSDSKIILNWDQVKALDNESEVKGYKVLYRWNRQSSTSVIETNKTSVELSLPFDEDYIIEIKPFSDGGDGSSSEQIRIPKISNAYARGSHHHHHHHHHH
The test can be described thus: ELISA on coated human CNTN4-10×His, co-incubated with 0 nM CNTN4 receptor (APP); 0 nM CNTN-4 receptor (co-incubation). Here is the method:
(§1) An ELISA plate was coated with 20 nM of antigens human CNTN4-10×His. For antibody binding, a mixture of antibodies hAb-1 diluted to a final concentration of 0 to 1,000 nM and human CNTN4 receptors (Amyloid precursor protein, APP) diluted to 0 or 500 nM was bound to the antigens. HRP conjugated anti-human kappa antibodies were used as a secondary antibody for antibody detection. Color was developed using ABTS, which is a color developing reagent, and the absorbance at 405 nm was measured.

The target of test [2] is T2, human CNTN4 recombinant protein (human, UniProt Q8IWV2 19-1000).
T2 construct: No tag is stated, so it is kept apart from human CNTN4-10×His, though it may be the same preparation; also called Human CNTN-4 protein
T2 sequence (looked up): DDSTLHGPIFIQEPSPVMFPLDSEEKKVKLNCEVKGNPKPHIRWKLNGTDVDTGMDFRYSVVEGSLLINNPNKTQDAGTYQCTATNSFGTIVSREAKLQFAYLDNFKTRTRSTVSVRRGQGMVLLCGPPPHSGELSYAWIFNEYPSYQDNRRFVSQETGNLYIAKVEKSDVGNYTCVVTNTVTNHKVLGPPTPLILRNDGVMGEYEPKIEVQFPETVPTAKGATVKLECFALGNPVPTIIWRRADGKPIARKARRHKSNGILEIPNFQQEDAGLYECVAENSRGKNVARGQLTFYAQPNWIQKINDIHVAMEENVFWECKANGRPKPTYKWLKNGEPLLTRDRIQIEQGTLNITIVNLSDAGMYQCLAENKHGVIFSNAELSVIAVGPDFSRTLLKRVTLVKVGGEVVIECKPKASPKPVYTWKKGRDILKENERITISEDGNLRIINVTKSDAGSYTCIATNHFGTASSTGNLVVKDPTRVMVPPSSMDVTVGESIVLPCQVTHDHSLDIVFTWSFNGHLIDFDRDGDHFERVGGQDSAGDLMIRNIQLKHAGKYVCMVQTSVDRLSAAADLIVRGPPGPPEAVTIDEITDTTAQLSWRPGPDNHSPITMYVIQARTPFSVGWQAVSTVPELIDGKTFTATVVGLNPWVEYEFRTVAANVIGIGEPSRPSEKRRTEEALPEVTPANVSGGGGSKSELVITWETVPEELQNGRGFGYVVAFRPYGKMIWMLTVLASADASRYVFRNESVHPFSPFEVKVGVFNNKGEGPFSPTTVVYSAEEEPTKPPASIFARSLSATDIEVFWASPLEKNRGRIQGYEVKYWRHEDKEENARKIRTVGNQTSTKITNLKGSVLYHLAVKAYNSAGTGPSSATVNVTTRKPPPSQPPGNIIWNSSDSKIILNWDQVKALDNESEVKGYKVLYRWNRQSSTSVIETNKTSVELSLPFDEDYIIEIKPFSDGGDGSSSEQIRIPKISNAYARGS
The test can be described thus: SPR (CM5 chip), hAb-1 captured by anti-human IgG Fc, human CNTN4 400 nM to 0.78 nM as analyte. As to the method: SPR test was performed on the monoclonal antibody hAb-1 prepared in Example 2. More specifically, in order to bind anti-human IgG Fc (capture antibody) using amine coupling, CM5 chip was mounted, running buffer was allowed to flow, the chip was activated, and then capture antibody was attached thereto. […] to which capture antibody was not attached was deactivated using ethanolamine, and then regeneration was performed using 3M magnesium chloride to clear analytes except capture antibody. The hAb-1 prepared at a concentration of 0.05 μg/mL was allowed to flow for 30 seconds at a rate of 10 μL/min for binding. Thereafter, human CNTN4 (400 nM to 0.78 nM) prepared by sequential dilution as an antigen was allowed to flow at a rate of 30 μL/min for 3 minutes to be bound, and dissociation was performed for 5 minutes.
Then, in order to clear all analytes attached to the capture antibody, a regeneration solution (3M magnesium chloride) was allowed to flow at a rate of […] for 30 seconds, and regeneration was performed. For each concentration of antigen, binding of hAb-1, binding of antigen, dissociation, and regeneration were repeated in order.

Test [3] has as its target T1, human CNTN4-10×His. The test can be described thus: ELISA on coated human CNTN4-10×His, competitor 500 nM CNTN4 receptor (APP) co-incubated. Here is the method:
as §1
(In general: ELISA stands for enzyme-linked immunosorbent assay.)

Test [4] addresses T1, human CNTN4-10×His. Put plainly: ELISA, plate coated with 20 nM antigen, HRP anti-human kappa detection. Here is the method:
(§2) ELISA test was performed on the monoclonal antibody hAb-1 prepared in Example 2. An ELISA plate was coated with 20 nM of antigens (human CNTN4-10×His or mouse CNTN4-10×His). For antibody binding, antibodies hAb-1 were serially diluted from a maximum of 1 μM to 0.0001 nM, thereby binding to the antigen. HRP conjugated anti-human kappa antibodies were used as a secondary antibody for antibody detection. Color was developed using ABTS, which is a color developing reagent, and the absorbance at 405 nm was measured.

Another test deals with T3, mouse CNTN4-10×His (mouse, UniProt Q69Z26 19-1000).
T3 sequence: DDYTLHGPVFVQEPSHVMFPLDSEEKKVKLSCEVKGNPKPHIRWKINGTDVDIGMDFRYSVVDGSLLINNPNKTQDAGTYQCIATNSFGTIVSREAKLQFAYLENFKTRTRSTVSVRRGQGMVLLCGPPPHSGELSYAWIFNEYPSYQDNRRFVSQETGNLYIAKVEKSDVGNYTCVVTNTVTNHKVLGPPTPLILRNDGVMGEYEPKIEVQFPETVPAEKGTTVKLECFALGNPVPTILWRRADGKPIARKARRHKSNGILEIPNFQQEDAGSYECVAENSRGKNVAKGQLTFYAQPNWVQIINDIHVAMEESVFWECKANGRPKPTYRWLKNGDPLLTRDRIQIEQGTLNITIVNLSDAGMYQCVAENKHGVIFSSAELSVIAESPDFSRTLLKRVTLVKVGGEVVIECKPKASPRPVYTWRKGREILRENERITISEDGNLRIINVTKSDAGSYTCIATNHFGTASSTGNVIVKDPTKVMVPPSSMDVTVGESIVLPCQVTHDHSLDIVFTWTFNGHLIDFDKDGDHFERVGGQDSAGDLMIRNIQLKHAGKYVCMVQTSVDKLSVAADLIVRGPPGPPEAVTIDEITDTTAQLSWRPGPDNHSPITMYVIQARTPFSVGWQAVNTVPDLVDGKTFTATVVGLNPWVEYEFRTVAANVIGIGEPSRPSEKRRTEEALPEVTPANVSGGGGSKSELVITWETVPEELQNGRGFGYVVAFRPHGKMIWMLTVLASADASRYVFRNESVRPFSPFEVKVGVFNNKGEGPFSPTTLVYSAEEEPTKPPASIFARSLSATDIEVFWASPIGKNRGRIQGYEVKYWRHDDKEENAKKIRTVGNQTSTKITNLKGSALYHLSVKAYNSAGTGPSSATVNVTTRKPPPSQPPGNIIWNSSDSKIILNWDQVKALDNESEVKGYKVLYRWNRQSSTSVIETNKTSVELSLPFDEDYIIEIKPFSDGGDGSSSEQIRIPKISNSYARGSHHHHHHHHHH
Described as above. As to the method:
as §2

B1: anti-CNTN4 IgG4-S228P monoclonal antibody hAb-1 (antibody, V domains shown)
VH: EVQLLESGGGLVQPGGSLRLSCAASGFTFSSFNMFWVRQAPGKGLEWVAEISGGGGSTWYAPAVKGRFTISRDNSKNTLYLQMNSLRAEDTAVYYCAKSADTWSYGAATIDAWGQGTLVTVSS
VL: ELTQDPAVSVALGQTVRITCSGSSGSYGWYQQKPGQAPVLVIYDNTNRPSGIPDRFSGSSSGNTASLTITGAQAEDEADYYCGGYDGSTDVFGGGTKLTVL
With B1, the concentration for a half-maximal effect (EC50) turned out to be 0.17 nM with human CNTN4-10×His [1], 0.24 nM with human CNTN4-10×His [3], 0.17 nM with human CNTN4-10×His [4] and 0.12 nM with mouse CNTN4-10×His. Besides, in test [2], the Kd was 35.6 nM.

The record behind these values is patent publication US20240209081A1 (GENOME, published 2024).
